Experimental data: the supplement of paper PMC12042874
± gives the uncertainty stated by the source.

Assay: amyloid nucleation score (Sup35N fusion, yeast selection) (log enrichment); library NNK3; higher = more nucleation; inactive = no reads after selection
In short: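 On medium lacking adenine and uracil, psi-negative yeast expressing peptides of 20 random codons fused to Sup35N were grown 7 days at 30°C after a 24-hour induction with 100 μM copper sulfate. Illumina sequencing of input and output plasmid inserts gave the reads, and sequences under 100 input reads were excluded. The nucleation score is the DiMSum log enrichment of output over input reads, centred on the mode score of non-aggregating sequences.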

Substance	amyloid nucleation score
SSWSSRATLMLSSEVKSDMV	inactive
SSYLLRLLIFTSSIRRMFGS	inactive
SSYLMFDMLMRYYLNYFMCR	inactive
SSYLNYIFSMTLECIYGC	-0.272 ± 0.47
STASILFIGVKYVM	0.889 ± 0.32
STETYWYSHLIINLVGSWF	inactive
STIISWWSTVIYFKLI	inactive
STIQSHCYKVVGV	inactive
STLGRKVRFTVVLITIGVLT	inactive
STLRSLCRPSGFGVAI	inactive
STLRWLR	inactive
STNMFVCDGRTPTNYWLGIR	1.42 ± 0.14
STPHAHIRSLFMSGYGILTN	inactive
STSICIGLLYAFVFEARVLC	inactive
STVCWHMQRVASTVAL	inactive
STVFDFSTLNFFCKSCSIFW	2.22 ± 0.087
STVVNSYMNFCACKGSNMAC	2.7 ± 0.068
STWDLNMCLFRYMFKI	inactive
STWMNTDYGDTTV	-0.277 ± 0.96
SVCMVFYPVEREKEDQKSVE	inactive
SVERILLYGRCCFVRRA	0.403 ± 0.2
SVFCMLYLFWLSFLIVLLLM	1.59 ± 0.13
SVFDMDSMGTS	inactive

Substance	amyloid nucleation score
SVFQWHPFIESKGNLLSTVK	inactive
SVGCPVVRTQFILSPGQTSN	inactive
SVIIRRGTSQPNRVSWNKVK	inactive
SVIVTYVWVTAVVQGEYSTK	-0.095 ± 0.55
SVIYIWDG	0.425 ± 0.43
SVKKESCCD	inactive
SVKRDFFSLFRFVSNAVSED	inactive
SVKTGYVDRPNLRTTFYGCL	inactive
SVLWLN	inactive
SVNKAWHSRLIVVLYNRLTG	0.082 ± 0.18
SVRHSWTMSVFFSDRNALAN	inactive
SVRRLGGLLLYCNHFMFD	inactive
SVRVSIFRGLVRNRWKFDGF	0.666 ± 0.16
SVSADGGFCIHGQTRPMAGL	1.21 ± 0.095
SVSVLV	inactive
SVTFANTSRHYPLADLSTPT	0.162 ± 0.27
SVVDRGASRFKRTVNVSNKA	inactive
SVVRVCSSCIVDYRMCESK	0.927 ± 0.14
SVYECNLIRDFIDRQGPNLA	2.25 ± 0.058
SWCCR	1.4 ± 0.1
SWFWVHHEFVFKALGTLIRT	inactive
SWGAWIGLWFRTGVLLDESA	inactive
SWGIEDSVSYEMETDVVSNW	inactive

Substance	amyloid nucleation score
SWISR	inactive
SWMYEFGSGTVKGGGKSELD	inactive
SWPVCWDHIWQSWGLTTSAV	inactive
SWRAVRRALLGRCNGSRVLV	inactive
SWTCRFCHMSFIGML	0.251 ± 0.43
SYDNWWCVILMRNQGRCAWG	inactive
SYFVWVNV	inactive
SYGKTFAMSYVW	inactive
SYINHTIPRVLWAITLRYLI	inactive
SYMACYFSIAYEYFNSTFDK	inactive
SYMLTFK	inactive
SYPERMLWSSVMADFKMRRP	inactive
SYQVCSKQTPHFSLSFIMFV	-0.488 ± 0.96
SYRASSGCHWREPHGLSDVR	0.897 ± 0.21
SYRGSRRRSFTSYLCEFEGM	inactive
SYSGIYILSSFAATSSFILS	0.46 ± 0.2
SYSQKKRHVSKSTGSRAWQA	inactive
SYSRLWTQMNCTKVVNSYC	inactive
SYSWYFYSAGTSWI	inactive
SYTPHY	inactive
SYVAVPR	inactive
SYVVSQPFSHRYWESLTMAL	inactive
SYYAHL	inactive

Substance	amyloid nucleation score
SYYMTKLVFLCPLW	inactive
SYYTYVFTIVTPRKTNLWSG	0.64 ± 0.28
TAAYSLFIEVSCSQSTN	inactive
TADRQGYSFEC	inactive
TAEKSGVGLFGGTSVFLFES	inactive
TAFTYYASVSFVSRL	1.38 ± 0.093
TAKTRC	-0.272 ± 0.96
TARYMLSKYVTLCNDVSI	0.984 ± 0.12
TASWVLFVAVVCICLTLFSY	0.85 ± 0.3
TAWGMLGGPE	inactive
TAYFFSVARVMVDLTTALLA	0.161 ± 0.33
TCECDGFLFFRRCFNWG	inactive
TCEWQRTCNPVGMSYKWSRG	inactive
TCGINYRGYEDPRPCRGTEI	inactive
TCGVVSPRGMSNMLCLGGWS	inactive
TCHLSKHEISYQLGDTNGHC	-0.516 ± 0.9
TCIGPGRFFFMMFYV	inactive
TCLLRQCWNNVMS	inactive
TCLWFLFIKRSSRDSEIWS	0.209 ± 0.53
TCRPFIT	inactive
TCSTGAGNFCVCDFRLVRMR	inactive
TDHNDLMKLFATRCSPNPCL	inactive
TDILLYMIFVLHVVSNGVLG	inactive

Substance	amyloid nucleation score
TDVIYVDGPLA	inactive
TDVVSSVILRYSFFGHVNEF	inactive
TDVYHQNAQYHRVYNLQGRV	inactive
TENISFECYMEIY	inactive
TENISVCGYYYRMIALDMFW	inactive
TEYTILLASRNLFPTR	0.598 ± 0.25
TFDPKL	inactive
TFLLCVVDGCCICRRGSCAS	2.2 ± 0.096
TFLNRIQWSKWILN	inactive
TFRTTGM	inactive
TFSNNYPFSRWGCFSVLAV	inactive
TFVKSVLSYVLGLELSLRGL	inactive
TFVVSVMHKCAW	1.18 ± 0.11
TGDGTWS	inactive
TGILRNFSCFSFWFWVIRIT	1.46 ± 0.097
TGSDAYSMRMPRQPPISFVV	inactive
TGVVMCLGIEMINDYIPVLN	inactive
TGYHGHTPFSYDQYEFHLRV	inactive
TGYLAMWLY	inactive
TGYLQLYRTADDRGLEYCIM	inactive
THDAVNFVLRHWAITGNTDM	inactive
THEHMRHC	inactive
THGREGYASSSSSLGPGSIS	-0.08 ± 0.44

Substance	amyloid nucleation score
THMATNLAGMYREAHGSGGI	inactive
THPVSCRYVSPDMSSAHYFV	inactive
THYEVWGLT	inactive
TIFECRRASFNVSVEMGR	inactive
TIFMWCV	1.64 ± 0.097
TIFSIDFIIVYT	1.81 ± 0.057
TIIRLIFIWAFFGSGICGRV	inactive
TIMCNIWLGFRT	2.01 ± 0.096
TINIQCALGMNQT	1.17 ± 0.11
TINRLLICI	-0.14 ± 0.57
TIQCMCFCSNRVLTIIVQLS	-0.61 ± 0.75
TISGLNM	inactive
TISIVTWDIVRSKCMRRKVL	inactive
TIVFCIVLGWLEFHRHFVSD	inactive
TIWSCMCVMWITRPSNTRRP	inactive
TIWSITFLGCKLELTEKCLV	0.979 ± 0.24
TIYNEGCVCKVYKESLGGSA	inactive
TKAAMPRNNYLFILY	-0.278 ± 0.71
TKCVLNGRRLSLCPLDNSMR	inactive
TKFIMKRLLVERVSCFLRSH	inactive
TKSMVKNLHALPSIKRGVFV	inactive
TKTHCFLLLSGVCVGRVLGW	inactive
TLDGLLRASMYSLIYWLVLM	inactive

Substance	amyloid nucleation score
TLFEMYNVTFIMKNGLQES	1.96 ± 0.062
TLFNLFRVKLIDEPNLAKWL	inactive
TLGSAEDMYRQPRIANTDSC	-0.123 ± 0.59
TLLIRCYPYIMLYRFAASTD	inactive
TLLRHVNNDGGSVSLGTMLA	inactive
TLLSFAHYHHLWSHLVYRSV	inactive
TLSLACGSYVQCSMEFLSSG	1.6 ± 0.08
TLSLVQQSR	inactive
TLTRVRTRCTKWRFICNCPM	0.254 ± 0.34
TLTWHNVWGCICGKFLTV	inactive
TLVGYLIARLFWR	inactive
TLWMGF	inactive
TLYCRYFG	1.01 ± 0.23
TMAEGL	inactive
TMIFMLVI	inactive
TMLDLGDKYVMLFEQVDSFF	inactive
TMSRRAARMQCAILVPSRLL	inactive
TNDFVNV	inactive
TNDTLFFVTSLVADPVERIS	inactive
TNGKEWWNCVYGERTVNAFA	inactive
TNGLVLHRSWLEFFLYYTQR	inactive
TNLWFKNLSMFMGIVSLART	inactive
